For data set [1], the target named is NatR anti-toxin (PA1029), co-expressed with His-tagged NatT in E. coli (Pseudomonas aeruginosa). The data set can be described thus: mass photometry; co-purified NatR-NatT complexes at a final concentration of 10 nM, 50 mM Bicine pH 8.5, 50 mM KCl, Refeyn OneMP.
Data set [2] has as its target NatT toxin (PA1030), His-tagged, wild type (Pseudomonas aeruginosa) (UniProt Q9I4U4). Described as above.
In data set [3] the target is NatR anti-toxin (PA1029), co-expressed with His-tagged NatT in E. coli (Pseudomonas aeruginosa). The data set can be described thus: crystal structure; NatR-NatT wild-type complex, sitting drop, 2.5 mg/ml, 0.2 M sodium sulfate, 0.1 M Bis-Tris propane 7.5, 20% PEG 3350, 20 C.
Data set [4] concerns the molecule itself. The data set is described as above.

Turning to “NatR anti-toxin (PA1029), co-expressed with His-tagged NatT in E. coli (natural protein)”, the stoichiometry N in data set [1] and in data set [3] was 2 in each case. Besides, the stoichiometry N (NatR per NatT) in data set [2] came to 2.

B1: NatT toxin (PA1030), His-tagged, wild type (enzyme)
chain: SEIWRQCKGERHIRPLQGRLVRLVESQEQVATLQLVDTLEEQALLEELLESSKPPVPADAEPLHYLLKTPFRYPPLRWGSRFGRRHEPSLFYAALKLETAMAESAYYRCVLWSGMVVPPPSGRILSEHASFEAGWKVERGIRLQAPPFSDHEAALTDIADYRAPQELGSAMRSAGVQAFEYRSARCPERGCNVALFTPAAFTEKRPRNLTPWLCETTAGYVAFKPAHVPGSPKIFSWELFLVDGKLPHPA
notes: also called NAD+ degrading toxin; RES domain toxin; source: E. coli BL21 (DE3), pRSF-Duet-1, co-expressed with NatR, purified as a complex (HisTrap, SEC)
As for B1, the “stoichiometry N” value in data set [4] amounted to 2.

As a reminder, the stoichiometry N is a count of units in the complex or per binding partner.
